1 molecule from patent publication US20200277374A1 (Alector, published 2020) can be followed below.

For assay [1], the target named is T1, Histidine-tagged human Siglec-7 (NovoProtein) (human, UniProt Q9Y286 19-357, limits assumed).
T1 construct: Bought protein; also called purified Siglec-7-his tagged protein; not shown: histidine tag
The assay is described as follows: SPR (BiaCore T200, 25 C), antibody captured on anti-mouse IgG, Siglec-7-His 10 nM, single-concentration kinetics. Here is the method:
SPR data was collected at a rate of 10 Hz at 25′ C on a BiaCore T200 instrument. Data analysis was performed using BiaCore T200 Evaluation Software, version 2.0. HBS-EP+ (100 mM HEPES, 1.5 M NaCl, 30 mM EDTA, 0.5% v/v Surfactant P20, pH 7.4) was used as running buffer and for preparing reagents.
Mouse-derived antibodies (25 nM) against Siglec-7 were captured (60 s contact time, 30 μL/min flow rate, 0 s stabilization time) on a CM5 sensor chip (GE Healthcare) immobilized with anti-mouse IgG. Histidine-tagged human Siglec-7 (NovoProtein) was then flowed over the captured anti-Siglec-7 surface (120 s contact time, 30 μL/min flow rate, 300 s dissociation time). Concentration of antigen ranged from 5 nM to 100 nM, depending on information obtained from an initial screen. Duplicate single-concentration trials were performed and bracketed by a blank (0 nM antigen) sample. The chip surface was regenerated in between cycles using 10 mM glycine-HCl, pH1.7 (60 s contact time, 30 μL/min flow rate, 60 s stabilization time). The resulting SPR signal was obtained as the difference in response from measurements performed on a blank flow cell.
Affinity constants (KD) were calculated from the ratio kd/kₐ. For one antibody (clone 1E8), we validated the single-concentration analysis with a multiple-concentration approach (five concentrations of antigen used, plus one blank).

Assay [2] concerns the target T2, human Siglec-7 expressed on human cells (primary monocytes, dendritic cells, macrophages, NK cells, … (human, UniProt Q9Y286 19-467)).
T2 construct: Endogenous receptor on cells; also called Siglec-7 receptor
The assay is described as follows: FACS, human primary dendritic cells, 10 ug/ml mAb. (In flow cytometry, cells or beads pass a laser one at a time.)

The target of assay [3] is T2, human Siglec-7 expressed on human cells …. The assay is described as follows: cell-based or functional assay.
Assay [4] addresses T3, Siglec-7-Fc (plate immobilized) (human, UniProt Q9Y286 19-357, limits assumed).
T3 construct: also called Siglec-7-Fc protein; immobilized Siglec-7; not shown: Fc part
The experiment in a line: RBC solid adhesion assay, plate-coated Siglec-7-Fc, antibody 0.5 or 1.0 ug/ml; % of RBC binding without antibody. The procedure, abridged: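 Plates coated overnight at RT with 5 μg/ml Siglec-7-Fc and blocked in PBS with BSA and 1 mM CaCl₂. Antibody (0.5 or 1.0 μg/ml) bound 1 h at RT, then RBCs (3.0×10⁶ cells/ml) added for 1 h at RT. Bound RBCs lysed and detected by peroxidase at 450 nm, expressed as % of binding without antibody.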

The target of assay [5] is T2, human Siglec-7 expressed on human cells …. The experiment in a line: cell-based or functional assay. This is another data set of the same source.
Assay [6] has the same target. The experiment in a line: FACS, human primary macrophages, 10 ug/ml mAb.
For assay [7] the target is unchanged. The assay is described as follows: FACS, human primary monocytes, 10 ug/ml mAb.

As a reminder, the Kd is the concentration at which binding is half-saturated.

T2 sequence (Q9Y286 19-467): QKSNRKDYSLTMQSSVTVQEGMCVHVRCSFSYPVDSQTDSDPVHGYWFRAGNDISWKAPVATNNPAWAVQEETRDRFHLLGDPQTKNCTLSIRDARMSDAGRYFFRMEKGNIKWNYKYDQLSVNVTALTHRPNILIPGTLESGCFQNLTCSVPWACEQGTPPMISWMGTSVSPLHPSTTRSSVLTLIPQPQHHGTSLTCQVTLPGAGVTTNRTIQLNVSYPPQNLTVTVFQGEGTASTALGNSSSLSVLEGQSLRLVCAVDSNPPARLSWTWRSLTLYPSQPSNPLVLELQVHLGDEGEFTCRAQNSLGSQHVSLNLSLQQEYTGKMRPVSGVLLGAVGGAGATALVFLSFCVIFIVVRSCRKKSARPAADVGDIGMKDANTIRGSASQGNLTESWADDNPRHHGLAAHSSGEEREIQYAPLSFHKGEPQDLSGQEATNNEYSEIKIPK
T1 sequence (Q9Y286 19-357 limits assumed): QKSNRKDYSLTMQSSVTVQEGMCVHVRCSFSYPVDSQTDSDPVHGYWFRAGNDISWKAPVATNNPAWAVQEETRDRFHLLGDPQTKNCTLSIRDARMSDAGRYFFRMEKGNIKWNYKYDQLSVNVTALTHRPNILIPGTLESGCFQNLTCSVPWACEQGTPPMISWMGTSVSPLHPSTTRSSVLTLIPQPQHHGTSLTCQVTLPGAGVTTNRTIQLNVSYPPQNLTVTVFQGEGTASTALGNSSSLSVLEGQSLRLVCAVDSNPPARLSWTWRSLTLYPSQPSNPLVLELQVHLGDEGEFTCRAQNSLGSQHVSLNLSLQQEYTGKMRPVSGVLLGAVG
T3 sequence (Q9Y286 19-357 limits assumed): as above

B1: anti-Siglec-7 antibody 10G8 (antibody, V domains shown)
VH: EVKLVEFGGALVKPGGSLKLSCAALGFTFSTYAMFRVRQTPEKREEGVASISSGGRYTYYPDSAKDRHPIFRDNARNTLYLQMSSLRSKDTAMYYCVRHSYGSSYWYLDVWGAGTTVTVSS
VL: DIQMTQFPATLSGTPGDRVZLSRRASQSIREYLHWYQQKSHESPRLZIKFASQSICGIPSRFSGSGSGSDFTLSINTVEPEDVGVYYCQKAHNFPYTFGGGTKLEIK
notes: Variable domains assembled from FR and CDR entries
B1 yielded a Kd in assay [1] of 0.6 nM. Besides, in assay [2], the “% Positive” value was determined as 99.5% and the MFI turned out to be 897. Also, in assay [3], the “Percent Siglec-7 Surface Expression, DCs” value was 10.5%; the “Percent Siglec-7 Surface Expression, Monocytes” value worked out at 30.9%; the “Percent Siglec-7 Surface Expression, U937 cells” value worked out at 83.8%. Besides, the “Percent RBC Binding to Siglec-7” value in assay [4] turned out to be 111%. In assay [5], the “Percent Siglec-7 Surface Expression, Macrophages” value is 9.2% and the “Percent Siglec-7 Surface Expression, NK cells” value was 74.7%. In assay [6], the “% Positive” value was determined as 99.7% and the MFI was determined as 3280. In addition, in assay [7], the “% Positive” value was 99.1% and the MFI is 523.
